# Experimental data taken from the DeepSol protein solubility set.
# Test: soluble on expression in E. coli; label from the status in PepcDB or PDB records
row,Sequence,soluble on expression in E. coli
1,MGSSHHHHHHSSGLVSRRHMNIDMAALHAIEVDRGISVNELLETIKSALLTAYRHTQGHQTDARIEIDRKTGVVRVIARETDEAGNLISEWDDTPEGFGRIAATTARQVMLQRFRDAENERTYGEFSTREGEIVAGVIQRDSRANARGLVVVRIGTETKASEGVIPAAEQVPGESYEHGNRLRCYVVGVTRGAREPLITLSRTHPNLVRKLFSLEVPEIADGSVEIVAVAREAGHRSKIAVRSNVAGLNAKGACIGPMGQRVRNVMSELSGEKIDIIDYDDDPARFVANALSPAKVVSVSVIDQTARAARVVVPDFQLSLAIGKEGQNARLAARLTGWRIDIRGDAPPPPPGQPEPGVSRGMAHDR,soluble
2,MGSSLSNLNDGTNGLAMGPGLGDIPESCVACVFMYLTPPEICNLAGLNRSFRGAASSDSVWEKKLPENYQDLLDLLPPERYHSLSKKDIFAVLSRPIPFDDDNKEVWIDRVTGRVCMAISARGMSITGIEDRRYWNWIPTEESRFHVVAYLQQIWWFEVDGTVRFHLPPGVYSLSFRIHLGRFTKRLGRRVCHFELTHGWDLKPVRFSLSTSDGQEASCEYYLDDVERNEALGKHKRGYWIEYRVGEFIVNGSEPSTEIQWSMKQIDCTHSKGGLCVDSVFINPIGDVKEHKRKAVLKEA,soluble
3,MGSSTSTPAPPPKKNKPEGRKADNQILNSYQKSIVRNAWRHMSQKGPSNCGSTITRRMMARKSTIGDILDRSTLDYHNLQIVEFLQKVMQSLDEPDKISKLCQEIGQKHAKYRRSKGMKIDYWDKLGEAITETIREYQGWKIHRESLRAATVLVSYVVDQLRFGYSRGLHVQGSRETKEDDEE,not soluble
4,MGVFNYEIETTSVIPAARLFKAFILDGDNLVPKVAPQAISSVENIEGNGGPGTIKKINFPEGFPFKYVKDRVDEVDHTNFKYNYSVIEGGPVGDTLEKISNEIKIVATPDGGCVLKISNKYHTKGNHEVKAEQVKASKEMGETLLRAVESYLLAHSDAYN,soluble
5,MGVKTFQFPFAEQLEKVAEQFPTFQILNEEGEVVNEEAMPELSDEQLKELMRRMVYTRILDQRSISLNRQGRLGFYAPTAGQEASQIASHFALEKEDFILPGYRDVPQIIWHGLPLYQAFLFSRGHFHGNQIPEGVNVLPPQIIIGAQYIQAAGVALGLKMRGKKAVAITYTGDGGTSQGDFYEGINFAGAFKAPAIFVVQNNRFAISTPVEKQTVAKTLAQKAVAAGIPGIQVDGMDPLAVYAAVKAARERAINGEGPTLIETLCFRYGPHTMSGDDPTRYRSKELENEWAKKDPLVRFRKFLEAKGLWSEEEENNVIEQAKEEIKEAIKKADETPKQKVTDLISIMFEELPFNLKEQYEIYKEKESK,soluble
6,MGVLITGCGSRGDTEPLVALAARLRELGADARMCLPPDYVERCAEVGVPMVPVGRAVRAGAREPGELPPGAAEVVTEVVAEWFDKVPAAIEGCDAVVTTGLLPAAVAVRSMAEKLGIPYRYTVLSPDHLPSEQSQAERDMYNQGADRLFGDAVNSHRASIGLPPVEHLYDYGYTDQPWLAADPVLSPLRPTDLGTVQTGAWILPDQRPLSAELEGFLRAGSPPVYVGFGSGPAPAEAARVAIEAVRAQGRRVVLSSGWAGLGRIDEGDDCLVVGEVNHQVLFGRVAAVVHHGGAGTTTAVTRAGAPQVVVPQKADQPYYAGRVADLGVGVAHDGPTPTVESLSAALATALTPGIRARAAAVAGTIRTDGTTVAAKLLLEAISRQRSSVPAAKLAAALEHHHHHH,soluble
7,MGVSGYGHDDLGRETLDKVFAEVMGAEAAAVRVQFVSGTHAIACALFGVLRPGDEMLAVVGSPYDTLEEVIGLRGQGQGSLIEFGIKYRQLELTSQGSIDWQTLSTSITDHTRLVLIQRSCGYSWRPSLSIADIEKVVNLVKQQNPHTVCFVDNCYGEFIETQEPTHVGADLMAGSLIKNPGGTIVTAGGYVAGRADLVEAAACRLTAPGIGSYGGATFLEHHHHHH,soluble
8,MGVYVLNVTDNSTFKGILNISDTVTAVNDQTFDSSKDLIDYVSSQKLGDSVKVTYEEDGQTKSAEGKIITLENLEHHHHHH,not soluble
9,MGYRRFLQLVAHEFFHLWNVKRIRPKALEQFDYEAENYTPSLWFSEGATSYYDLLLPLRAGLYGVDSFLEALGKDLSRYLTTPGRKVQPLAESSFDAWVKLYRRDAYSDNQQMSYYLKGQLVCWLLDLEIRNHQPDLEHHHHHH,soluble
10,MGYVGIKIRLTDVAPQAQELFKKESLDVKENKVYLVAATLRPETMYGQTCCFVSPKIDYGVFDAGNGDYFITTERAFKNMSFQNLTPKRGYYKPLFTINGKTLIGSRIDAPYAVNKNLRVLPMETVLATKGTGVVTCVPSDSPDDFVTTRDLANKPEYYGIEKDWVQTDIVPIVHTEKYGDKCAEFLVNDLKIQSPKDSVQLANAKELAYKEGFYNGTMLIGKYKGDKVEDAKPKVKQDLIDEGLAFVYNEPELEHHHHHH,soluble
11,MHDVMELRNLSMVDLQTFNTQFSKITDRYWREIFRRQNDSHHPDHINVSRLQTANIITVLDENLPQGAIQELTITGLIPKPFSSRRCEVMRYLRERLSCSPDVELSFQGDQLRITNPTLNLENVPVLSMEKH,not soluble
12,MHEFSIVQSLLTLIEDYARENNAKSVTKVVVSIGVLSGVEPHLLEMAFNTFKEGTVAEKAELIMEIEKLKIKCMDCGKESEKEELNMLCPGCGSLNTQIISGQDMFLKSLELEVD,soluble
13,MHFVKKVPTTEEEKAAKQKEHTKRSQQFLHVRDKIVAKREKGEYDDEILSLTQAILEKNADIYTFWNIRRTTIELRMEANEKVQQSADAEEEEKTKSSQKIENLLAGELFLSYECIKSNPKSYSAWYQRAWALQRQSAPDFKKELALCEKALQLDCRNFHCWDHRRIVARMAKRSEAEELEFSNKLINDNFSNYSAWHYRSIALKNIHRDEKTGAPKIDDELIASELQKVKNAFFMDAEDQSAWTYTRWLLEVGSGKEFLRPESHTPIELISASFHGNNTTLVFSRAVTIQFLLTFVDTENTTGWRAFSSTSPNPTSSRVWQYLSDTPLRVVTSNPTDLENISWTELNEQPYVNLDRLKTIYDVVEVPQPAYIGELLEDCKQLIELEPKNKWPLYMRTLVLLEYQPIKSYEEIIKNLENLSENLDPKRSELYKSLISRQNLNFSIREQFERILGPDTDWLTCRYSKLTSLEGVEYLAGFVGSADFSGNRLKEIQRIVLPNLKSLTINENPIESLPPSPCLSHLTFFSIAGTQIASVSAVMPFFQTIPSLDRLVFCETPLVEKTEELRAQLPGVRLIPHWL,soluble
14,MHGVEFAPLERQHGSQVLALLRGTLLVPLPRLHQRLEEAYERDARLGLAQVALCRLAGNAEKVVGVLLARVATRRTCCAQVYIDAVAVDAVFQGQGIGSRLLLRVLTPCLPDGLEVREVFLHTPLQATELVAFYRSCGFESDDEVIDNYYPRRWMPQAQALVLRWRPPTAAQHQHEERKGPQDADVS,not soluble
15,MHHFSAGRSNSIGLRQSVSDKGIEIVNLLAPKVEMLGFDLLGAEYLLVPSGAILRLYIDIPFAMQPECMVSIDDCERVSREVSAYLDLEEPISGNYTLEVSSPGLDRRLFTLEQFARHHNHLVKVGLKLQQHGSRRLQGKIVRVEQVGGFVVLLVNGVELAVDFNNIDKARIVPDWSALGLAPLEKSKHDTKKMSQGSKKPSNESAARQAVRGVIR,not soluble
16,MHHHHHHENLYFQSNAMAKSRLLLSELLDQLSFALCIVRNDYVIVKVNEYFESRVIFDGETMQGKNILELFPESADYLKRKIDTALVIESSSFSSWEQKPHLLPFKSSRPVSGEEEQMYQNLEVIPIHSEDGTIEHVCLCVYDVTIQASQQQ,soluble
17,MHHHHHHSSGRENLYFQGSGTIYGWGHNHRGQLGGIEGAKVKVPTPCEALATLRPVQLIGGEQTLFAVTADGKLYATGYGAGGRLGIGGTESVSTPTLLESIQHVFIKKVAVNSGGKHCLALSSEGEVYSWGEAEDGKLGHGNRSPCDRPRVIESLRGIEVVDVAAGGAHSACVTAAGDLYTWGKGRYGRLGHSDSEDQLKPKLVEALQGHRVVDIACGSGDAQTLCLTDDDTVWSWGDGDYGKLGRGGSDGCKVPMKIDSLTGLGVVKVECGSQFSVALTKSGAVYTWGKGDYHRLGHGSDDHVRRPRQVQGLQGKKVIAIATGSLHCVCCTEDGEVYTWGDNDEGQLGDGTTNAIQRPRLVAALQGKKVNRVACGSAHTLAWSTSKP,soluble
18,MHHHHHHSSGVDLGTENLYFQSMKQYEHVTRDLNPEDFWEIIGELGDGAFGKVYKAQNKETSVLAAAKVIDTKSEEELEDYMVEIDILASCDHPNIVKLLDAFYYENNLWILIEFCAGGAVDAVMLELERPLTESQIQVVCKQTLDALNYLHDNKIIHRDLKAGNILFTLDGDIKLADFGVSAKNTRTIQRRDSFIGTPYWMAPEVVMCETSKDRPYDYKADVWSLGITLIEMAEIEPPHHELNPMRVLLKIAKSEPPTLAQPSRWSSNFKDFLKKCLEKNVDARWTTSQLLQHPFVTVDSNKPIRELIAEAKAEVTEEVEDGKE,soluble
19,MHHHHHHSSGVDLGTENLYFQSNAMKKEIASHLLEIGAVFLQPNDPFTWSSGMKSPIYCDNRLTLSYPKVRQTIAAGLEELIKEHFPTVEVIAGTATAGIAHAAWVSDRMDLPMCYVRSKAKGHGKGNQIEGKAEKGQKVVVVEDLISTGGSAITCVEALREAGCEVLGIVSIFTYELEAGKEKLEAANVASYSLSDYSALTEVAAEKGIIGQAETKKLQEWRKNPADEAWITA,soluble
20,MHHHHHHSSGVDLGTENLYFQSNAMTAPSQVLKIRRPDDWHVHLRDGDMLKTVVPYTSEIYGRAIVMPNLASPITTVDAAIAYRQRILDAVPAGHDFTPLMTCYLTDSLDADELERGFHEGVFTAAKLYPANATTNSSHGVTSVDAIMPVLERMEKLGIPLLVHGEVTHADVDIFDREARFIDTVMEPLRQRLTALKVVFEHITTKDAAQYVRDGNDYLAATITPQHLMFNRNDMLVGGIRPHLYCLPILKRNIHQQALRELVASGFTRAFLGTDSAPHSRHRKETSCGCAGCFNAPSALGSYAAVFEEMNALAHFEAFCSLNGPQFYGLPMNTGWVELVRDEQQIPGNIALADDSLVPFLAGETVRWSVKK,soluble
21,MHHRHLQVLRTDASGMPLEWIGYQEAAKLYYLEQVAYGCGSILFRLRGGINAKTGQRSRIEVNSIVATFGHANSGYKVDMGYVPPLNNAALFRRDGHICLYCGNLFRHSELSRDHIQPTSRGGSDTWNNVVTACKRCNNHKAGRTPEEAKMQLLAIPFTPTHAEYIYLQGRRVLADQMEFLKAHFPRKSPLHQRLSLEHHHHHH,not soluble
22,MHIAIIGAAGMVGRKLTQRLVKDGSLGGKPVEKFTLIDVFQPEAPAGFSGAVDARAADLSAPGEAEKLVEARPDVIFHLAAIVSGEAELDFDKGYRINLDGTRYLFDAIRIANGKDGYKPRVVFTSSIAVFGAPLPYPIPDEFHTTPLTSYGTQKAICELLLSDYSRRGFFDGIGIRLPTICIRPGKPNAAASGFFSNILREPLVGQEAVLPVPESIRHWHASPRSAVGFLIHGAMIDVEKVGPRRNLSMPGLSATVGEQIEALRKVAGEKAVALIRREPNEMIMRMCEGWAPGFEAKRARELGFTAESSFEEIIQVHIEDELGGSLK,soluble
23,MHISFIIPAFNEEQLIEPCLRSITDAVAANRSYGYTSEIIVVDNNSTDATAQLAKQAGAQVVFEPVNHIARARTAGAGAARGDWLVFMDADCLLNAGLVGDIFELIRQGRHIGAGSTLYMPGQPWWAEMLLRIWTFLSVQLGWAAGALIVCNAAAFREVGGFDLTLYAAEEIDLSQKLKKYGRKRKLKFAILNAHPLETSSRKTQLYSGWEIVGQFLRLVLSPLGTLRNKKKLPMWYDGRRLEHHHHHH,soluble
